From patent US20040048305

How the values were obtained:
[1] = molecular target: T1, bovine myelin basic protein (biotinylated MBP, Amersham Biosciences), P02687
T1 chain: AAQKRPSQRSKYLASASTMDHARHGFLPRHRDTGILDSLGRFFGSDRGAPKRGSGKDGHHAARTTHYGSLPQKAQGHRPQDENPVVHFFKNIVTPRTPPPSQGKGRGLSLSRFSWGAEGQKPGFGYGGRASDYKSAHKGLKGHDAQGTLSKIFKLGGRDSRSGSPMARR

[2] = molecular target: T2, peptide 3: Biotin-KKRFSFKKSFKLSGFSFK-COOH
T2 chain: KKRFSFKKSFKLSGFSFK

B1: GST-14171 fusion protein (glutathione S-transferase fused to the N-terminus of a partial 14171 molecule, amino acid residues 1-350 of SEQ ID NO:2) (protein)
chain: MEGDGGTPWALALLRTFDAGEFTGWEKVGSGGFGQVYKVRHVHWKTWLAIKCSPSLHVDDRERMELLEEAKKMEMAKFRYILPVYGICREPVGLVMEYMETGSLEKLLASEPLPWDLRFRIIHETAVGMNFLHCMAPPLLHLDLKPANILLDAHYHVKISDFGLAKCNGLSHSHDLSMDGLFGTIAYLPPERIREKSRLFDTKHDVYSFAIVIWGVLTQKKPFADEKNILHIMVKVVKGHRPELPPVCRARPRACSHLIRLMQRCWQGDPRVRPTFQEITSETEDLCEKPDDEVKETAHDLDVKSPPEPRSEVVPARLKRASAPTFDNDYSLSELLSQLDSGVSQAVEGP
How did the “counts per minute at the two hour timepoint, 10 nM enzyme, 0.5 uM substrate” value [1] turn out when B1 was run?
The value was “about 21,000 cpm”.

What about the “phosphorylation of biotinylated MBP by soluble GST-14171 fusion protein” value [1] of the same protein?
Its value is “phosphorylated MBP”.

And the “signal-to-noise ratio at the two hour timepoint, 10 nM enzyme” value [1]?
Its value is “a signal-to-noise ratio of 13”.

And the “substrate phosphorylation, [gamma-33P]ATP, streptavidin SPA beads” value [1]?
Its value is “strong phosphorylation of bovine myelin basic protein”.

And the “counts per minute at the two hour timepoint, 10 nM enzyme, 0.5 uM substrate” value [2]?
The value was “about 11,000 cpm”.

And the “signal-to-noise ratio at the two hour timepoint, 10 nM enzyme” value [2]?
Its value is “a signal-to-noise ratio of 9”.

What about the “substrate phosphorylation, [gamma-33P]ATP, streptavidin SPA beads” value [2] of the same protein?
Its value is “weak phosphorylation of the following peptide, named peptide 3”.
